Broadly, the kcat is the maximal rate divided by the concentration of active sites. One may read the kcat/Km as the turnover number divided by the Michaelis constant.

The test system of data set [1] is CCCCCCCCCCCC(=O)Oc1ccc([N+](=O)[O-])cc1. In words: purified protein. The settings on record: 50 mM sodium phosphate pH 7, 40 °C.
Data set [2] concerns CCCCCCCCCCCCCCCC(=O)Oc1ccc([N+](=O)[O-])cc1. Nature of the data set: purified protein. The note with it: 50 mM sodium phosphate pH 7, 40 °C.
In data set [3] the test system is CCCC(=O)Oc1ccc([N+](=O)[O-])cc1. In words: purified protein. The note with it: 50 mM sodium phosphate pH 7, 40 °C.
Data set [4] concerns CCCCCCCC(=O)Oc1ccc([N+](=O)[O-])cc1. Nature of the data set: purified protein. The note with it: 50 mM sodium phosphate pH 7, 40 °C.
For another data set, the target named is T1, FsCut (Fusarium vanettenii, UniProt P00590).
T1 construct: gene CUT1
T1 sequence (P00590 32-230): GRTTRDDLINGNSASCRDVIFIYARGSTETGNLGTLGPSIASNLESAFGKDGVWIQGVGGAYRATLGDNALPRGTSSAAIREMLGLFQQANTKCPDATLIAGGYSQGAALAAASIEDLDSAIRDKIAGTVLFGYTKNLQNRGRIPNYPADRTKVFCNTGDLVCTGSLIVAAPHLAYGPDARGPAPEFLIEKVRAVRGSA
Nature of the data set: pNP release at […] nm, nonlinear Michaelis-Menten fit. The settings on record: read-out: FsCut; 50 mM sodium phosphate pH 7, 40 °C.

Substrate in data set [5]: CCCCCCCCCCCCCCCC(=O)Oc1ccc([N+](=O)[O-])cc1
In words: purified protein. The note with it: 50 mM sodium phosphate pH 7, 40 °C. The format is biochemical, Coprinopsis cinerea.

Substrate in data set [6]: CCCC(=O)Oc1ccc([N+](=O)[O-])cc1
Nature of the data set: purified protein. The format is biochemical, Coprinopsis cinerea. The settings on record: 50 mM sodium phosphate pH 7, 40 °C.

Substrate in data set [7]: CCCCCCCCCCCC(=O)Oc1ccc([N+](=O)[O-])cc1
In words: purified protein. The data set is classed as biochemical, Coprinopsis cinerea. The settings on record: 50 mM sodium phosphate pH 7, 40 °C.

Substrate in data set [8]: CCCCCCCC(=O)Oc1ccc([N+](=O)[O-])cc1
Nature of the data set: purified protein. The format is biochemical, Coprinopsis cinerea. The settings on record: 50 mM sodium phosphate pH 7, 40 °C.

Substrate in data set [9]: CCCCCCCCCCCCCCCC(=O)Oc1ccc([N+](=O)[O-])cc1
Nature of the data set: purified protein. The format is biochemical, Thermothielavioides terrestris. The note with it: 50 mM sodium phosphate pH 7, 40 °C.

Substrate in data set [10]: CCCC(=O)Oc1ccc([N+](=O)[O-])cc1
In words: purified protein. The data set is classed as biochemical, Thermothielavioides terrestris. The note with it: 50 mM sodium phosphate pH 7, 40 °C.

Substrate in data set [11]: CCCCCCCCCCCC(=O)Oc1ccc([N+](=O)[O-])cc1
Nature of the data set: purified protein. The format is biochemical, Thermothielavioides terrestris. The note with it: 50 mM sodium phosphate pH 7, 40 °C.

Substrate in data set [12]: CCCCCCCC(=O)Oc1ccc([N+](=O)[O-])cc1
Nature of the data set: purified protein. The format is biochemical, Thermothielavioides terrestris. The settings on record: 50 mM sodium phosphate pH 7, 40 °C.

Substrate in data set [13]: CCCCCCCCCCCCCCCC(=O)Oc1ccc([N+](=O)[O-])cc1
In words: purified protein. The format is biochemical, Cryptococcus sp. S-2. The note with it: 50 mM sodium phosphate pH 7, 40 °C.

Substrate in data set [14]: CCCC(=O)Oc1ccc([N+](=O)[O-])cc1
Nature of the data set: purified protein. The settings on record: 50 mM sodium phosphate pH 7, 40 °C. The format is biochemical, Cryptococcus sp. S-2.

Substrate in data set [15]: CCCCCCCCCCCC(=O)Oc1ccc([N+](=O)[O-])cc1
In words: purified protein. The format is biochemical, Cryptococcus sp. S-2. The note with it: 50 mM sodium phosphate pH 7, 40 °C.

Substrate in data set [16]: CCCCCCCC(=O)Oc1ccc([N+](=O)[O-])cc1
In words: purified protein. The format is biochemical, Cryptococcus sp. S-2. The settings on record: 50 mM sodium phosphate pH 7, 40 °C.

As for PbCut (Pyrenopeziza brassicae), the Km in data set [1] stood at 80 ± 10 µM; in data set [2], 40 ± 10 µM; in data set [3], 1710 ± 170 µM; in data set [4] it was 540 ± 70 µM. In addition, the kcat is 0.2 s⁻¹ in [1], 0.08 s⁻¹ in data set [2], 6.45 ± 0.52 s⁻¹ in data set [3] and 1.43 ± 0.09 s⁻¹ in data set [4]. For the same molecule, the catalytic efficiency (kcat/Km) stood at 2500 ± 180 M⁻¹ s⁻¹ in data set [1], 2070 ± 250 M⁻¹ s⁻¹ in data set [2], 3790 ± 70 M⁻¹ s⁻¹ in [3] and 2650 ± 190 M⁻¹ s⁻¹ in data set [4].
`CCCC(=O)Oc1ccc([N+](=O)[O-])cc1` [pNP-C4]: the Km at FsCut turned out to be 1670 ± 40 µM.
For the molecule FsCut (Fusarium vanettenii), the Km was found to be 50 ± 10 µM in [1], 10 ± 0 µM in data set [2] and 720 ± 10 µM in [4]. Besides, the kcat in data set [1] was determined as 1.22 ± 0.03 s⁻¹; in data set [2], 0.15 s⁻¹; in data set [4] it was 6.69 ± 0.24 s⁻¹. Besides, the kcat/Km worked out at 22800 ± 2090 M⁻¹ s⁻¹ in data set [1], 10600 ± 1060 M⁻¹ s⁻¹ in [2] and 9250 ± 260 M⁻¹ s⁻¹ in [4].

B1: CcCut (Coprinopsis cinerea) (protein)
chain: QLFCRDVYVFFARGTGEVGTLGTVVGPGLSAAVKLAVRDSVEFEGIDYPALVSGYLAGGDRGGARTMANKVSQTASRCPNAKIFISGYSQGAQVTHLAARQLSAADQARVTGVVTFGDPYRDDALPGGLQSRRKTYCNVGDLICAGLPTLLAPHFTYGSDTPDAARWIAARV
As for B1, the Km in “purified protein [5]” is 2900 ± 200 µM; in the data set “purified protein [6]” it was 3560 ± 150 µM; in “purified protein [7]”, 2760 ± 50 µM; in the data set “purified protein [8]”, 1670 ± 180 µM. Further, in the data set “purified protein [6]”, the catalytic constant (kcat) amounted to 8.96 ± 0.39 s⁻¹. Moreover, the catalytic efficiency (kcat/Km) in “purified protein [6]” is 2520 M⁻¹ s⁻¹.

B2: TtCut (Thermothielavioides terrestris NRRL 8126) (protein)
chain: APTQPAGEAAVEARQLFSDTANDLENGVSSNCPKVIFICARGSTETGNLGSSVCPEVANGLKNYYPNQLWVQGVGGAYTADLASNALPGGTSTAAMQEAANMFNLAQQKCPNASVAAGGYSQGTAVVAGGIQSLSAAAKDQIKGVVLFGYTQAQQNHDTIPNFPVDKTMIFCAQGDLVCNGTLIVTAAHFSYITNGDASTKGPAWLHEKIGDA
For the molecule B2, the Km in the data set “purified protein [9]” came to 500 ± 90 µM; in “purified protein [10]” it was 7080 ± 90 µM; in “purified protein [11]” it was 210 ± 0 µM; in “purified protein [12]” it was 390 ± 10 µM. Further, in “purified protein [12]”, the turnover number (kcat) worked out at 2.3 ± 0.06 s⁻¹. Besides, the kcat/Km in “purified protein [12]” was determined as 5810 ± 50 M⁻¹ s⁻¹.

B3: CspCut (Cryptococcus sp. S-2) (protein)
chain: ATSSACPQYVLINTRGTGEPQGQSAGFRTMNSQITAALSGGTIYNTVYTADFSQNSAAGTADIIRRINSGLAANPNVCYILQGYSQGAAATVVALQQLGTSGAAFNAVKGVFLIGNPDHKSGLTCNVDSNGGTTTRNVNGLSVAYQGSVPSGWVSKTLDVCAYGDGVCDTAHGFGINAQHLSYPSDQGVQTMGYKFAVNKLGGSA
Take B3: the Km in the data set “purified protein [13]” came to 50 ± 0 µM; in “purified protein [14]”, 5540 ± 500 µM; in “purified protein [15]” it was 50 ± 0 µM; in “purified protein [16]” it was 50 ± 0 µM. Also, the kcat came to 3.38 ± 0.12 s⁻¹ in the data set “purified protein [13]”, 13.5 ± 0.25 s⁻¹ in “purified protein [14]”, 3.49 ± 0.06 s⁻¹ in “purified protein [15]” and 3.81 ± 0.27 s⁻¹ in “purified protein [16]”. The kcat/Km in “purified protein [13]” stood at 70700 ± 6470 M⁻¹ s⁻¹; in “purified protein [14]”, 2510 ± 270 M⁻¹ s⁻¹; in the data set “purified protein [15]” it was 65970 ± 600 M⁻¹ s⁻¹; in “purified protein [16]” it was 83200 ± 4200 M⁻¹ s⁻¹.

Source of the values: PMC8577158, “Phylogenetic analysis and in-depth characterization of functionally and structurally diverse CE5 cutinases” (The Journal of Biological Chemistry, 2021).
